Tested on: MS2 coat protein
Assay: apparent KD of MS2 coat protein; designed switch direction (-1 OFF switch, 1 ON switch): -1; higher = weaker reporter binding
Outline: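 Designed RNA switches with common flanks were transcribed on Illumina chips by stalled E. coli RNA polymerase and titrated with SNAP-549-labelled MS2 coat protein, from 0.7 or 1.5 nM doubling to 3 µM, in Tris-HCl pH 7.5 buffer with KCl, MgCl2, BSA, DTT, tRNA and Tween-20. Steps lasted 0.8–1.5 h (lowest) to 10–20 min (highest). Titrations ran without input, with 200 uM small-molecule ligand, or with an oligonucleotide input. Normalised cluster fluorescence was curve-fitted, and apparent KD is the per-design median over clusters.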

[1] = Eterna round: R95, input ligand: microRNA oligo, concentration not stated
[2] = input ligand: microRNA oligo, concentration not stated
[3] = Eterna round: R95, input ligand: FMN 200 uM
[4] = Eterna round: R95, input ligand: none

Sequence | apparent KD of MS2 coat protein (input ligand: FMN 200 uM) [nM] | apparent KD of MS2 coat protein (input ligand: none) [nM] | apparent KD of MS2 coat protein [1] [nM] | other results
UUCCAACAUGAGGAUCACCCAUGUCAGGAUAUCUAGGCUACUGCUACCACAAUUAGCUAGAGAAGGGACAAGAU [EX1 B.14] (Eterna round: R97, puzzle: Exclusion 1) | 26.1 | 19.5 | – | –
AGUGCGUAUGUGAGGAUAUGCUGGUCCUUGGCUCGGCAGAAGGCACAUGAGGAUCACCCAUGUGGUGUCGUACG [salish99_Bmod_ex4_065] (puzzle: Brourd's mod of Exclusion 4) | – | – | 48.8 | –
UGUGUGAGACAGGAUAUGCUGGAUGUGUGGCGGGUAGAAGGGUCUACAUGAGGAUCACCCAUGUGGCCGGUUGG [Ex6 #69] (Eterna round: R97, puzzle: Exclusion 6) | 15.8 | 18.9 | – | –
GUAUGUGCGAGAGGAUAUCGUGUACAAAGUACACGAGAAGGCUUCACAUGAGGAUCACCCAUGUACCGAGGUGAAACACCUUGA [Omei Exc(NG)1 Bv8] (Eterna round: R96, puzzle: Exclusion NG 1) | 934 | 270 | – | apparent KD of MS2 coat protein [2]: 173 nM
AUAAUACAUGUAGGAUAUGCGUGGCGAAGCUAUGCAGAAGGACAUGAGGAUCACCCAUGUCUUAGCGUCUGCGUACAGAUGCUA [JL eng1 1.35 mod 2] (Eterna round: R96, puzzle: Exclusion NG 1) | 27.9 | 16.4 | – | apparent KD of MS2 coat protein [2]: 12.1 nM
CUUGUUUAUGUAGGAUAUGCCUGGCGUGCCUUUGCAGAAGGACAUGAGGAUCACCCAUGUAACAUGAGGCUCACCCAUGUCGCC [salish99_ExNG1_r04_107] (Eterna round: R96, puzzle: Exclusion NG 1) | 142 | 153 | – | apparent KD of MS2 coat protein [2]: 94.8 nM
UGAGCUUCAGGAUAUACGUGACGACCGUGAGGUCGAAGGUUACAUGAGGAUCACCCAUGUAGAAGGGAAGUUCU [Mat - Exclusion 2 - JL Mod - D27] (Eterna round: R97, puzzle: Exclusion 2) | 70.8 | 27.5 | – | –
AAGUCGACGGUGAGGAUAUAGGUCGAACGACCGAUCUAGAAGGCACAUGAGGAUCACCCAUGUGGGUAACGUCG [Brourd's EX4 #33] (Eterna round: R97, puzzle: Brourd's mod of Exclusion 4) | 29 | 22.3 | – | –
UGGUCACAUGAGGAUCACCCAUGUCAGGAUAUCGUCACUGGAGCUUCGGCUCCAGUGACGAGAAGGGAUAUAAU [E1/9-A1] (Eterna round: R97, puzzle: Exclusion 1) | 191 | 57.8 | – | –
UUUUUGAUAGGAUAUACAUGAGGAUCACCCAUGUGUGACAGGACUGACGCUCUUCAUCGUAGAAGGAUCCGAGC [Eternabot (L1) Solution 97] (Eterna round: R97, puzzle: Exclusion 3) | 27.4 | 30.9 | – | –
UUGAACAUAGGAUAUAGUUGUUUGUACAUGAGGAUCACCCAUGUUAUGUAUGUUUUGUUUCUAGAAGGAUGUUGAU [JR_E5_Sub002] (puzzle: Exclusion 5) | – | – | 32.5 | –
UUAAGUAUAGAGGAUAUAUAAUAUUUAUUAACUAUAGAAGGCUAUACAUGAGGAUCACCCAUGUAUAUUGGGAU [JR_Ex6_Sub067] (Eterna round: R97, puzzle: Exclusion 6) | 59.1 | 41 | – | –
GGUUGGCGAGGAUAUACAUGAGGAUCACCCAUGUGAGAGAAAUAAGUGAGGAAGAAAAGUAGAAGGCGCUGACG [salish99_ex3_r3_014] (puzzle: Exclusion 3) | – | – | 59.4 | apparent KD of MS2 coat protein [3]: 222 nM; apparent KD of MS2 coat protein [4]: 79.2 nM
AAAAAGGUAGGAUAUACGAAAAAAAAGGGUAGAAAAAAAACACAUGAGGAUCACCCAUGUAGAAGGACCAAAAG [salish99_ex2_r3_045] (puzzle: Exclusion 2) | – | – | 32 | apparent KD of MS2 coat protein [3]: 58.7 nM; apparent KD of MS2 coat protein [4]: 28.4 nM
GGAGAGGUAGGAUAUGGACCUUAGAACAUGAGGAUCACCCAUGUAGGACCACAUGAUUUGCGAGAAGGACCAGUCC [AK-MS2ROC-r4-exclusion5-7] (Eterna round: R97, puzzle: Exclusion 5) | 363 | 655 | – | –
CCGGAAAUACAGGAUAUCGUAUCGGAUACGAUACGAGAAGGGUAUACAUGAGGAUCACCCAUGUGUCCUACCGG [Fiskers Ex 6 - 51] (Eterna round: R96, puzzle: Exclusion 6) | 30.1 | 26.3 | – | apparent KD of MS2 coat protein [2]: 20.2 nM
AGGUCCUUCUGGAGACAUGAGGAUCACCCAUGUCGAGUCAGCGAGGAUAUCGGUAAGACAUGUGAUGAGAAGGCGCAGACCGAU [Ex NG3 #43] (Eterna round: R96, puzzle: Exclusion NG 3) | 17.2 | 12.7 | – | apparent KD of MS2 coat protein [2]: 11.9 nM
UUUUACGCAGGAUAUACAUUUUUUUUAUUAUCCUCAUUAUUACAUGAGGAUCACCCAUGUAGAAGGGCGAUUUU [My Design] (puzzle: Exclusion 2) | – | – | 38.8 | –

Sequence | apparent KD of MS2 coat protein (input ligand: FMN 200 uM) [nM] | apparent KD of MS2 coat protein (input ligand: none) [nM] | apparent KD of MS2 coat protein [1] [nM] | other results
AAGAGUGAGCGAGGAUAUUGAUUUUGGCGUAGUCAAGAAGGCGCGUACAUGAGGAUCACCCAUGUGCUCAGAGCGCAAAAGGGU [Gequon] (Eterna round: R96, puzzle: Exclusion NG 1) | 208 | 68.2 | – | apparent KD of MS2 coat protein [2]: 49.8 nM
UGCAUGUGAGGAUAUGGCGCUCGAUUGCGGAAGGAGCGAGUUUAGAAGGUACAUGAGGAUCACCCAUGUCACGU [Eternabot (L2) Solution 97] (Eterna round: R97, puzzle: Exclusion 4) | 21.6 | 25.9 | – | –
AGUAACUAUCACGAAAGUGAUAGUUACAAUAGCAGUGAAACAUGAGGAUCACCCAUGUCCUCAUUUGCUCGUCUUAU [Sensor 3 - 23] (puzzle: Sensor v3, turn-off variant 2) | – | – | 566 | apparent KD of MS2 coat protein [3]: 49.6 nM; apparent KD of MS2 coat protein [4]: 61.2 nM
UACUUGUUAGGAUAUCUUACAUUUGCAUCAUAGUAACCAUUGGAGAAGGGACAUGAGGAUCACCCAUGUUUGGA [tap-tap-tappy2] (Eterna round: R97, puzzle: Exclusion 4) | 32.2 | 31.5 | – | –
CCUCAGGCGGAGGAUAUCUAACAACAAUAACAAAGAGAAGGCCGCACAUGAGGAUCACCCAUGUGUAUGGGCCG [Bitierre] (puzzle: Exclusion 6) | – | – | 13.1 | –
UUUGUUUAUGUAGGAUAUGCCUGGCGUGCCUUCGCAGAAGGACAUGAGGAUCACCCAUGUAUUGCGGUCUGCGUUCAGAUCGCG [salish99_ExNG1_r4_029] (Eterna round: R96, puzzle: Exclusion NG 1) | 52 | 43.2 | – | apparent KD of MS2 coat protein [2]: 34.8 nM
GAGGAUAGAGGAUAUGCAUAGAUACGGAUUCGUGUAGUACUACAUGAGGAUCACCCAUGUAGAAGGCUGUCCUG [JL-ex2-2.01 mat747 mod] (puzzle: Exclusion 2) | – | – | 12.9 | –
AAACAGGGAGGAUAUACAUGAGGAUCACCCAUGUUCGAGCGUCCUUGAGCUACCUCAGGUAGAAGGCCCAAAAG [Qubeon] (Eterna round: R97, puzzle: Exclusion 3) | 151 | 32.9 | – | –
UUUGUACAUGAGGAUCACCCAUGUCAGGAUAUGUCAUCGCCGUCUGCCAGACGGCGUCACAGAAGGGACAUGCA [EX1 C.16] (Eterna round: R97, puzzle: Exclusion 1) | 104 | 34.1 | – | –
CUUUUGUGAGGAUAUUAGUAGUAAAUGAAUAAAAUUAUUACUGAGAAGGCACAUGAGGAUCACCCAUGUUCCUU [Mat - Exclusion 4 - Eli Mod - D19] (Eterna round: R97, puzzle: Exclusion 4) | 83.6 | 14.6 | – | –
UGUUGUUCAGGAUAUGAUGUAUAAUACAUGAGGAUCACCCAUGUAGAUCCUGCUUUGGCGUCAGAAGGGAAUGUUG [salish99_ex5_r4_107] (Eterna round: R97, puzzle: Exclusion 5) | 55.9 | 51.8 | – | –
UUUUCUUUUGUGAGGAUAUACUUGUUUUUUUUUUUGUAGAAGGCACAUGAGGAUCACCCAUGUACUCUUUCCUG [JR_BME4_Sub024] (puzzle: Brourd's mod of Exclusion 4) | – | – | 20.1 | –
GCGUGACAUGAGGAUCACCCAUGUGAGGAUAUCUGGAUAAUUUUUAUUUUAGAUAUCCAGAGAAGGCACAUGCU [Ex1-3: 2Z] (puzzle: Exclusion 1) | – | – | 62.4 | –
GGAUCGAGUGUGAGGAUAUGCUGGUCCUUGGAUCAGCAGAAGGCACAUGAGGAUCACCCAUGUGAAUACGGUCC [JL bmx4 3.15] (puzzle: Brourd's mod of Exclusion 4) | – | – | 23.8 | –
UCACGGGACUAAGGAUAUAUGAGAGCCAUUAACAUAGAAGGUAGAAUGUUAGAUCAUAAACUAAACAUGAGGAUCACCCAUGUU [JR_ExcNG1_Sub093] (Eterna round: R96, puzzle: Exclusion NG 1) | 19.6 | 23.2 | – | apparent KD of MS2 coat protein [2]: 20.2 nM
CGUCUGUGAGGAUAUGGUAUCGUUUACAUGAGGAUCACCCAUGUUACAUGGGACUAGAGACUAGAAGGUACGAACG [EX5 #49] (Eterna round: R97, puzzle: Exclusion 5) | 212 | 320 | – | –
GGCAUCGGAGGAUAUACUUAUGGUGAUACCCGAAGCUUUCUACUUGAGGAUCACCCAAGUAGAAGGCCGAUGCC [jl-ex2.4.81 ViennaUCT mod] (Eterna round: R97, puzzle: Exclusion 2) | 11.7 | 12.6 | – | –

Reference: the supplement of paper PMC9170038
